The results in this text go back to publication PMC11151819.

The assay concerns the target BIR3 domain of XIAP (human) (UniProt P98170). Briefly: SEC. In general terms: SEC sorts molecules by how far they enter the pores of the column.

Turning to “BIR3 domain of XIAP (from UniProt P98170 241-356) (domain or fragment)”, the stoichiometry N is 2.

As a reminder, the stoichiometry N is the number of molecules, sites or subunits per partner or assembly.
